One assay has as its target BCL-XLΔC24 (labelled with the NHS RED NanoTemper labelling kit (MO-L001) for MST). Kind of assay: MST; Monolith NT.115; protein labelled with NHS RED, unlabelled synthetic peptide diluted in phosphate-buffered saline; 30 min incubation; 25 °C; 40% LED and 40% MST power; three independent experiments, single binding model. The settings on record: both partners purified.
Assay [1] deals with T1, T. suis A ΔC28 (Trichuris suis BCL-2-like protein A, C-terminal truncation) (Trichuris suis, labelled with the NHS RED NanoTemper labelling kit (MO-L001) for MST).
T1 chain: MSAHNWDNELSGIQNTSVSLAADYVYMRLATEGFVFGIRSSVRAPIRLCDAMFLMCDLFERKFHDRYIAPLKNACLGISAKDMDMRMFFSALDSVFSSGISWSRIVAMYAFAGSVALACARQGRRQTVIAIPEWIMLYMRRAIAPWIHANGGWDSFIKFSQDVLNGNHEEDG
The description is as above. As to conditions: both partners purified.

Chain of BCL-XLΔC24 (labelled with the NHS RED NanoTemper labelling kit (MO-L001) for MST) (chain, as listed by the source mutant): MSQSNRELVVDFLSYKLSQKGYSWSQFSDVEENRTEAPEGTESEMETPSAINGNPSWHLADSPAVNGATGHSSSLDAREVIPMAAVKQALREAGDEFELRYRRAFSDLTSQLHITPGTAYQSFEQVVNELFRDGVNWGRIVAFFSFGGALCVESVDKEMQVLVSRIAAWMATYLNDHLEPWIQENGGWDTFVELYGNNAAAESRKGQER

B1: BAK BH3 peptide (peptide)
peptide: PSSTMGQVGRQLAIIGDDINRRYDSE
notes: BH3 domain of BAK; also called BAK BH3 domain; source: synthetic peptide (Mimotopes, Australia, >90% purity)
B1 returned a Kd with BCL-XLΔC24 of 0.178 ± 0.034 µM.

B2: T. suis protein B BH3 peptide (peptide)
peptide: PILPEVNKTALCMRAMGEVFEDRYKT
notes: BH3 domain of Trichuris suis BCL-2-like protein B (ID# BCL_257); also called T. suis B BH3 domain peptide; source: synthetic peptide (Mimotopes, Australia, >90% purity)
For B2, in assay [1], the Kd was above 50 µM.

B3: T. suis protein A BH3 peptide (peptide)
peptide: SVRAPIRLCDAMFLMCDLFERKFHDR
notes: BH3 domain of Trichuris suis BCL-2-like protein A (ID# BCL_199); also called T. suis A BH3 domain peptide; source: synthetic peptide (Mimotopes, Australia, >90% purity)
B3: in assay [1], the Kd was above 50 µM.
